To fix the notation:
B1: minF1; the commonest letter at each place (parent)
chain: GAGACCGCAACTGAAAAGTTGTTATCAGAAATGGATGGGTTGAATTTCTGCACGTAGAAGCAAAAGGC

This series covers variants of B1. As to the kind of experiment: fraction ligated after 30 min (ligated reads / total reads); higher = more ligase activity. The following applies: with F1*subA RNA substrate (template-directed ligation), 42 °C. In outline:
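Minimized ligase ribozyme variants came from oligo-pool templates that were PCR-amplified, T7-transcribed and gel-purified. Their ligated and unligated RNAs were separated on gels before barcoded reverse transcription and MiSeq sequencing, with core bases kept only at quality ≥30. The fraction ligated for each variant is its ligated reads as a proportion of all its reads.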
Turning to GAGACCGCAACTGAAAAGTTGTTATCGAAAATGGATGGGTTGAATTTCTGCACGTAGAAGCAAAAGGC, the fraction ligated came out at 0.797.

GAGACCGCAACTGAAAAGTTGTTATCATAAATTGATGGGTTGAATTTCTGCACGTAGAAGCAAAAGGC: the fraction ligated is 0.725.

GAGACCGCAACTGAAAAGTTGTTACCAGAAATGGATGGGTTTAATTTCTGCACGTAGAAGCAAAAGGC: the fraction ligated was determined as 0.00269.

For GAGACCGCAACTGAAAAGTTGTTATCAGAGATGGATGGGTTGAATTTCTGCACGTAGAAGCAAAAGGC, the fraction ligated is 0.807.

In the case of GAGACCGCAACTGAAAAGTTGTTATCAGATATGGATGGGTTGAATTTCTGCACGTAGAAGCAAAAGGC, the fraction ligated stood at 0.823.

On to GAGACCGCAACTGAAAAGTTGTTATCAGAAATGGATGGGTTTGTTTTCTGCACGTAGAAGCAAAAGGC, for which the fraction ligated is 0.00254.

Consider GAGACCGCAACTGAAAAGTTGTTATCTGAAGTGGATGGGTTGAATTTCTGCACGTAGAAGCAAAAGGC, for which the fraction ligated amounted to 0.837.

As to GAGACCGCAACTGAAAAGTTGTTAGCAGAAAAGGATGGGTTGAATTTCTGCACGTAGAAGCAAAAGGC, the fraction ligated is 0.00223.

Consider GAGACCGCAACTGAAAAGTTGTTATAAGAAATGGACGGGTTGAATTTCTGCACGTAGAAGCAAAAGGC, for which the fraction ligated turned out to be 0.00707.

On to GAGACCGCAACTGAAAAGTTGTTATCCGAAATGGCTGGGTTGAATTTCTGCACGTAGAAGCAAAAGGC, for which the fraction ligated stood at 0.481.

For GAGACCGCAACTGAAAAGTTGTTATCAGAATTAGATGGGTTGAATTTCTGCACGTAGAAGCAAAAGGC, the fraction ligated was determined as 0.755.

For the variant GAGACCGCAACTGAAAAGTTGTTAACAGAAATAGATGGGTTGAATTTCTGCACGTAGAAGCAAAAGGC, the fraction ligated is 0.0105.

For GAGACCGCAACTGAAAAGTTGTTATCAGAATGGGATGGGTTGAATTTCTGCACGTAGAAGCAAAAGGC, the fraction ligated turned out to be 0.0242.

With GAGACCGCAACTGAAAAGTTGTTAACAGAAAAGGATGGGTTGAATTTCTGCACGTAGAAGCAAAAGGC, the fraction ligated was 0.00329.

With GAGACCGCAACTGAAAAGTTGTTATAAGAACTGGATGGGTTGAATTTCTGCACGTAGAAGCAAAAGGC, the fraction ligated amounted to 0.0417.

With GAGACCGCAACTGAAAAGTTGTTTTCAGAAATGGATGGGTTGAATTTCTGCACGTAGAAGCAAAAGGC, the fraction ligated worked out at 0.011.

As to GAGACCGCAACTGAAAAGTTGTTATCACAGATGGATGGGTTGAATTTCTGCACGTAGAAGCAAAAGGC, the fraction ligated turned out to be 0.816.

For the variant GAGACCGCAACTGAAAAGTTGTTATCAGTAATGGATGGGTTGGATTTCTGCACGTAGAAGCAAAAGGC, the fraction ligated was determined as 0.0507.

With GAGACCGCAACTGAAAAGTTGTTATGAGAAATCGATGGGTTGAATTTCTGCACGTAGAAGCAAAAGGC, the fraction ligated was 0.00704.

Regarding GAGACCGCAACTGAAAAGTTGTTATCAGAAAAGGTTGGGTTGAATTTCTGCACGTAGAAGCAAAAGGC, the fraction ligated worked out at 0.00186.

With GAGACCGCAACTGAAAAGTTGTTATCAGTAATGGAGGGGTTGAATTTCTGCACGTAGAAGCAAAAGGC, the fraction ligated amounted to 0.0504.

As to GAGACCGCAACTGAAAAGTTGTTATCAGAAATGGATCGGTTCAATTTCTGCACGTAGAAGCAAAAGGC, the fraction ligated is 0.00331.

GAGACCGCAACTGAAAAGTTGTTATCAGAAATGGGGGGGTTGAATTTCTGCACGTAGAAGCAAAAGGC: the fraction ligated turned out to be 0.00747.

In the case of GAGACCGCAACTGAAAAGTTGTTATCAGAAATGGATGGGTTTTGTTTCTGCACGTAGAAGCAAAAGGC, the fraction ligated is 0.000847.

For the variant GAGACCGCAACTGAAAAGTTGTTATCAGAAATGGATGGGTTCTATTTCTGCACGTAGAAGCAAAAGGC, the fraction ligated came to 0.00312.

As for GAGACCGCAACTGAAAAGTTGTTATCAGAAATGGATGGGTTTAGTTTCTGCACGTAGAAGCAAAAGGC, the fraction ligated was found to be 0.0143.

On to GAGACCGCAACTGAAAAGTTGTTATCAGAAATGGATTGGTTAAATTTCTGCACGTAGAAGCAAAAGGC, for which the fraction ligated is 0.00778.

As to GAGACCGCAACTGAAAAGTTGTTCTCAGAAATGGATGGGTTAAATTTCTGCACGTAGAAGCAAAAGGC, the fraction ligated is 0.00275.

Regarding GAGACCGCAACTGAAAAGTTGTTATCAGAAATCGGTGGGTTGAATTTCTGCACGTAGAAGCAAAAGGC, the fraction ligated worked out at 0.0844.

Turning to GAGACCGCAACTGAAAAGTTGTTATCAGAAATCGCTGGGTTGAATTTCTGCACGTAGAAGCAAAAGGC, the fraction ligated amounted to 0.0133.

Consider GAGACCGCAACTGAAAAGTTGTTATCAGAAATCGATGGGTTAAATTTCTGCACGTAGAAGCAAAAGGC, for which the fraction ligated was determined as 0.132.

For GAGACCGCAACTGAAAAGTTGTTTTCAGAAATGGATAGGTTGAATTTCTGCACGTAGAAGCAAAAGGC, the fraction ligated stood at 0.00164.

With GAGACCGCAACTGAAAAGTTGTTATAAGAAATAGATGGGTTGAATTTCTGCACGTAGAAGCAAAAGGC, the fraction ligated was 0.19.

As to GAGACCGCAACTGAAAAGTTGTTCTCAGTAATGGATGGGTTGAATTTCTGCACGTAGAAGCAAAAGGC, the fraction ligated amounted to 0.0449.

GAGACCGCAACTGAAAAGTTGTTCTCAGCAATGGATGGGTTGAATTTCTGCACGTAGAAGCAAAAGGC: the fraction ligated turned out to be 0.0282.

On to GAGACCGCAACTGAAAAGTTGTTATCAGAAATGGATGGGTTATTTTTCTGCACGTAGAAGCAAAAGGC, for which the fraction ligated came to 0.00133.

Regarding GAGACCGCAACTGAAAAGTTGTTATCAGACATGGATGGGTTGGATTTCTGCACGTAGAAGCAAAAGGC, the fraction ligated was found to be 0.0454.

On to GAGACCGCAACTGAAAAGTTGTTATGAGAAATGGATGGGTTGCATTTCTGCACGTAGAAGCAAAAGGC, for which the fraction ligated was 0.00457.

For GAGACCGCAACTGAAAAGTTGTTAACGGAAATGGATGGGTTGAATTTCTGCACGTAGAAGCAAAAGGC, the fraction ligated was 0.0139.
